The results in this text go back to the supplement of paper PMC12764529.

± gives the half width of the 95% confidence interval.

A short description of series [1]: folding stability dG unfold from trypsin proteolysis; higher = more stable. Summed up:
(§1)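 Designed mini-proteins (under 80 residues, no cysteine) in a PA-tagged cDNA display construct were digested with trypsin and chymotrypsin. Each protease was used at 11 concentrations (threefold dilutions) plus a no-protease condition, followed by sequencing. K50 was inferred by Bayesian fitting of sequencing counts, and unfolding free energy was derived against a sequence-predicted unfolded-state K50 and a shared folded-state K50, per protease or combined. Only designs with AlphaFold2 dimer inter-PAE above 15 were kept.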

A short description of series [2]: folding stability dG unfold from chymotrypsin proteolysis; higher = more stable. Summed up:
as §1

Series [3] in a line: folding stability dG unfold (combined trypsin and chymotrypsin); higher = more stable. Summed up:
as §1

In the case of “SNWITLKHTIKHPGREIKIEITAQPNPGGPYWIQVNIEVRDPNGEKEEVEITVPFRGMSIEDFLKNAADASA [r9_217_TrROS]”, the entries for the “folding stability dG unfold” value in series [1], in series [2] and in series [3] were 2.85 ± 0.12 kcal/mol, 4.46 ± 0.062 kcal/mol and 3.78 ± 0.29 kcal/mol, respectively.
The corresponding values for “SPAGELVSSTFPVTVTVTVWRRLPDGTWTPVGTETFTVTVTVAGIPEEVAEALRKAAETPPPPPNLAGLLSA [r9_1192_TrMRF]” are 1.98 ± 0.028 kcal/mol, 1.82 ± 0.049 kcal/mol and 1.93 ± 0.054 kcal/mol.
Consider “SPEIKIEVFKNEDGEEIFIKIEVPPGWRIRIIYNGKEIEEIEVDGYRIRFEEVDGKLRIEVEPLPPGEKPSA [r9_221_TrROS_Hall]”, for which the “folding stability dG unfold” value in series [1] came out at 3.87 ± 0.081 kcal/mol; in series [2], 5.48 ± 0.15 kcal/mol; in series [3] it was 5.2 ± 0.27 kcal/mol.
On the same counts, the results for “SPIVKVRLRIELPDGKVLELELDVPLPLIKEALSKLIGEKYKVKIVKIDPIDPEKLKPGSTIEITLKAEPSA [r9_803_TrMRF]” are 3.72 ± 0.28 kcal/mol, 4.76 ± 0.14 kcal/mol and 4.59 ± 0.2 kcal/mol.
For the sequence “SPKGIYIFMIQVKWKNPNGNEWTFPIMVPMDEMPEEELRDFIREFFPGFDDVDIEPQVMRIPPSPEAREKSA [r9_841_TrROS]”, the “folding stability dG unfold” value worked out at 2.3 ± 0.16 kcal/mol in series [1], 2.75 ± 0.17 kcal/mol in series [2] and 2.57 ± 0.28 kcal/mol in series [3].
Turning to “SPLELPSDEEITVNAEVLILPYNPETGEIEDEIPIPLPVKIKVKKDGSVEIEIDIPDSIPENVPIVLLLKSA [r9_90_TrMRF]”, the “folding stability dG unfold” value in series [1] was found to be 1.29 ± 0.062 kcal/mol; in series [2] it was 1.81 ± 0.14 kcal/mol; in series [3], 1.52 ± 0.19 kcal/mol.
The corresponding values for “SPLKEGDTLTFTLPVPDLPNVRIEIDLHFYKDPNTDRYRVLANITVYYGDKPVTFSIEMPVDTFLDLLKSSA [r9_71_TrMRF]” are 2.99 ± 0.24 kcal/mol, 2.34 ± 0.12 kcal/mol and 2.87 ± 0.18 kcal/mol.
Consider “SPLKPNDIRPIKFTSPIRNPDNGRPFRIKVEIWVMPEDPMVIIKDEIEPPNGRTREHTFWIPPGQKIEIPSA [r9_88_TrROS]”, for which the “folding stability dG unfold” value in series [1] worked out at 0.261 ± 0.13 kcal/mol; in series [2], 0.358 ± 0.33 kcal/mol; in series [3], 0.295 ± 0.3 kcal/mol.
Turning to “SPNFRISPEIKNAIKRALKENEPGKKVEIRMRYPDGPTIMISIDKPGSINIEVEPDPGKPIMEFEFDIKDSA [r9_132_TrROS]”, the “folding stability dG unfold” value turned out to be 0.732 ± 0.079 kcal/mol in series [1], 0.825 ± 0.069 kcal/mol in series [2] and 0.873 ± 0.16 kcal/mol in series [3].
The corresponding values for “SPPFKIKEIKIEIFPNGTVKIEYRFPSSGHYVKFSIPVDPKKGRIPINMEIYNPDNGKVWEFSATIRIKKSA [r9_825_TrROS]” are 3.34 ± 0.17 kcal/mol, 4.86 ± 0.077 kcal/mol and 4.69 ± 0.2 kcal/mol.
The corresponding values for “SPPVSTTTPVPDPENGVVVATVTLTTDPTTGEKTLILKSPEGKTKTVTLSPDETFPVEGLPKGLTATSSVSA [r9_1150_JUSTAS]” are -0.942 ± 0.47 kcal/mol, 0.437 ± 0.082 kcal/mol and 0.0862 ± 0.14 kcal/mol.
On the same counts, the results for “SPRTTVSFEVYMPPDQLKQNSIEDIADRVRDHFPGYKIKGIDIKFEPYPDPENGRPWVRVTVMIRVEPPESA [r9_1189_TrROS]” are 2.34 ± 0.085 kcal/mol, 3.28 ± 0.098 kcal/mol and 2.96 ± 0.14 kcal/mol.
As to “SPSRPTLVTTYTFDPSGVPTATTKEITPEEVEELEKKGWKKLSEDPEKGLITLEKKLPTSPQKIEVTILPSA [r9_5_JUSTAS]”, the “folding stability dG unfold” value in series [1] is -0.402 ± 0.2 kcal/mol; in series [2] it was 0.0733 ± 0.27 kcal/mol; in series [3], 0.0748 ± 0.29 kcal/mol.
As for “SPSTTVETTVTIPYTYRLPDGTVLEYNLTISVTASLTNGGISTGDLKSAIDTALAAANIPPGPPDLPLLLRS [r1_175_JUSTAS]”, the “folding stability dG unfold” value is 0.738 ± 0.13 kcal/mol in series [1], 2.31 ± 0.098 kcal/mol in series [2] and 1.83 ± 0.096 kcal/mol in series [3].
Turning to “SPTIKASYDPETGVLTVYVKLRDPETGEPIPAEAVAAKIKELFPDAEILDIEPNPDGYVKITVKVAPDAVSA [r9_87_TrMRF]”, the entries for the “folding stability dG unfold” value in series [1], in series [2] and in series [3] were 3.48 ± 0.11 kcal/mol, 3.79 ± 0.086 kcal/mol and 3.72 ± 0.071 kcal/mol, respectively.
On the same counts, the results for “SPTQTITLTLPDRPVTVPLTAYPETGYVEITVTVTYPTGTKTYTFTVKAKSFEEVLAELSKLPEDFDINPSA [r9_713_TrMRF]” are 1.83 ± 0.073 kcal/mol, 1.81 ± 0.088 kcal/mol and 1.85 ± 0.052 kcal/mol.
For “SPTVTETTLIASEEDPSSGVKTELTETTTIVKVGGTTTEVTTTTTTLTPEEDGKGTSTVTPSTTTTPIPASA [r9_375_JUSTAS]”, the “folding stability dG unfold” value in series [1] worked out at 0.84 ± 0.079 kcal/mol; in series [2], 1.45 ± 0.12 kcal/mol; in series [3] it was 1.29 ± 0.12 kcal/mol.
In the case of “SPVKIRIIVPKGMDPEMANFIVKEIMKHLGLPPGAPVEILPWEDLQKNPDVHQALEEAEKEGADIVILIRSA [r9_1147_TrROS]”, the “folding stability dG unfold” value in series [1] came out at 3.08 ± 0.14 kcal/mol; in series [2], 4.16 ± 0.16 kcal/mol; in series [3], 3.84 ± 0.1 kcal/mol.
The corresponding values for “SPVKWGEEKTYTYPFPDNPNYRIKIKVHVYKDPENGRPYVRMNIEVYNNGKPRKYNINMPVDQLKDLLQFSA [r9_71_TrROS]” are 2.22 ± 0.039 kcal/mol, 2.66 ± 0.076 kcal/mol and 2.57 ± 0.21 kcal/mol.
On the same counts, the results for “SQNGGPKRKVTITIIIVIPPGQRNPDGKPRPSVEELARYLQKELQEQFPGNKDVKIDITIIPLGDPEQIKSA [r9_329_TrROS]” are 2.06 ± 0.069 kcal/mol, 2.86 ± 0.15 kcal/mol and 2.33 ± 0.21 kcal/mol.
The corresponding values for “SQVKIHIPFEVEYSPENGNYFFMIRVRYPGKERPIMFPYKDPEQMREWARTIAKELAKENPDNVEIEIWWSA [r9_1148_TrROS]” are 2.42 ± 0.038 kcal/mol, 2.83 ± 0.095 kcal/mol and 2.73 ± 0.15 kcal/mol.
In the case of “SRIKISIFRPGKIIPEIPIKVDSVEEAVEKVLEYIRKFPPNAPYYIMIEVEHTDPANGQKQEGTVHIPIKSA [r9_245_TrROS]”, the “folding stability dG unfold” value in series [1] was determined as 2.22 ± 0.059 kcal/mol; in series [2], 4 ± 0.048 kcal/mol; in series [3], 3.39 ± 0.12 kcal/mol.
With “SSAEELARRLAAELAERLPPGARITDVRIERRADGTVTITVTVELPDGRTLTVTITLDLATGEITIEIHPSA [r9_219_TrROS_Hall]”, the “folding stability dG unfold” value was found to be 4.95 ± 0.16 kcal/mol in series [1], 4.35 ± 0.26 kcal/mol in series [2] and 4.89 ± 0.19 kcal/mol in series [3].
For “SSEILEKLAKELPDLEPVGVEEEPLPDGGRRLTLVARRPETGTYVRVTVDVPPGGGVASVEVEEVPVSRLSA [r9_274_JUSTAS]”, the results for the “folding stability dG unfold” value in series [1], in series [2] and in series [3] were 0.529 ± 0.054 kcal/mol, 2.23 ± 0.033 kcal/mol and 1.77 ± 0.054 kcal/mol, respectively.
On the same counts, the results for “SSKIEASATIEGDVITVTLVADSLSDLLAAIKELAEKLGVSFEILSISYKRLPNGKIIATVTARVKPEDLSA [r9_102_TrMRF]” are 3.24 ± 0.056 kcal/mol, 4.65 ± 0.048 kcal/mol and 4.277 ± 0.039 kcal/mol.
As to “SSLSIPGATKEEFEEIAEELEKKNPGVKVTVTYDPENGVITITITKPVKDKKGNLIGTETEVITITVTKPSA [r9_378_JUSTAS]”, the “folding stability dG unfold” value is 3.05 ± 0.41 kcal/mol in series [1], 2.26 ± 0.072 kcal/mol in series [2] and 2.41 ± 0.14 kcal/mol in series [3].
The corresponding values for “SSMSSSPLGSDPATGTTYYLSVSNNSTTLSTVTPAPVLPISPEELEKIAKELAKKNPKLAKKAKELAEKLKS [r1_330_JUSTAS]” are -0.301 ± 0.2 kcal/mol, 0.123 ± 0.25 kcal/mol and -0.0137 ± 0.3 kcal/mol.
The corresponding values for “SSMTLVTVEMEITLRTPEGGSETLKRTFEREVSPDDPAAVEAAVEAAKEEIREAHPDVVEVRVVKVDTALSA [r9_436_JUSTAS]” are 4.06 ± 0.089 kcal/mol, 4.459 ± 0.039 kcal/mol and 4.41 ± 0.046 kcal/mol.
The corresponding values for “SSMTTTEKKYTYNDSSISVSTTTLPDGSKLITTPITRKNPDGIDVTETLTTLDKGSGVTPVSPSTSTLNTSA [r9_554_JUSTAS]” are -1.24 ± 0.18 kcal/mol, 0.602 ± 0.035 kcal/mol and 0.177 ± 0.069 kcal/mol.
In the case of “SSPIMIKMKDPDDREKIEKAVEEINDETGMSIRPESVDPNGKYTFMINMPPEHQKKILKALREAGNIEIVSA [r9_472_TrROS]”, the “folding stability dG unfold” value worked out at 0.289 ± 0.21 kcal/mol in series [1], 1.1 ± 0.15 kcal/mol in series [2] and 0.874 ± 0.16 kcal/mol in series [3].
On the same counts, the results for “SSPKILTESELKITIPMTDPETGKPINLEVTIPLLVDPATGTVEVLEIKITGPEEVQEILKKLIEKLIKESA [r9_619_JUSTAS]” are 2.14 ± 0.23 kcal/mol, 2.15 ± 0.12 kcal/mol and 2.11 ± 0.22 kcal/mol.
In the case of “SSSGPKTELITLKYEEPVRSPEEAEARARALAEEIAERTGAPIEVDVEIEYDPETGKAYVTVPVRVLLPDSA [r9_741_JUSTAS]”, the results for the “folding stability dG unfold” value in series [1], in series [2] and in series [3] were 1.14 ± 0.037 kcal/mol, 0.124 ± 0.16 kcal/mol and 0.727 ± 0.1 kcal/mol, respectively.
Consider “SSSTVTVTVTFPDGTVVTVDFTGSLAEVEAAVREWVRQYAAEQGLDPREVRVTITFADDGTTRERTLPLRSA [r9_1193_JUSTAS]”, for which the “folding stability dG unfold” value in series [1] amounted to 0.921 ± 0.043 kcal/mol; in series [2], 2.42 ± 0.035 kcal/mol; in series [3], 2.04 ± 0.086 kcal/mol.
The corresponding values for “SSSVVESSYDPSTGTLTVTVSYDFPPAPPAAATSSTTPVGSNSYTGSGSYTSPAGASSLSSTATGPPTLSSA [r9_780_JUSTAS]” are 1.43 ± 0.031 kcal/mol, 1.15 ± 0.054 kcal/mol and 1.37 ± 0.048 kcal/mol.
On to “SSVTIPFKITDPNTTIAEIAERVRELLPESLGELSVTVTFSDGTTLNVTPGENLSKYYSPDDELTITVDAPS [r1_56_JUSTAS]”, for which the “folding stability dG unfold” value in series [1] was 1.29 ± 0.034 kcal/mol; in series [2], 1.23 ± 0.11 kcal/mol; in series [3], 1.27 ± 0.11 kcal/mol.
On the same counts, the results for “SSVTLVLEKPLPSGKRLVVVTTLKPEPARGTVRLDVTTTTYTFSKTENGEITTSSTTSTSTETVSPEELLSA [r9_1137_JUSTAS]” are 2.53 ± 0.13 kcal/mol, 2.48 ± 0.18 kcal/mol and 2.49 ± 0.29 kcal/mol.
